Results taken from US8470780B2, “Methods and compositions related to targeting wounds, regenerating tissue, and tumors” (Sanford-Burnham Medical Research Institute, priority 2006, dated 2013).

Assays:
[1] = system: full thickness excision wounds in the dorsal skin; assay: Skin wound healing treatment with decorins; type: in vivo, mice
Method: Next, the effect of the homing peptide decorins on wound healing was examined. The daily dose of 40 μg/day was chosen based on previous decorin studies (Seidler 2006; Yang 1999). The dose was doubled on Days 4-6, coincident with the peak in TGF-β expression in wounds (Brunner 2004; Yang 1999). The treatments were started on Day 3 after wounding, when granulation tissue first forms in wounds (Brunner 2004), and continued for 7,9, or 11 days in three independent treatment experiments. Several parameters commonly used to assess wound repair and scarring were measured (Ashcroft 1999; Cheon 2006; Shah 1995). […]
(§1) The treatments were started three days after wounding and consisted of daily tail vein injections. […] The ratio was reversed from Day 7 based on previously determined homing profiles of CRK and CAR phage to wounds at different time-points. The wounds were inspected and photographed daily, and scored for complete re-epithelialization. […]
Image analysis and quantification of granulation tissue/wound area, and hyperproliferative epidermis were done using ImageJ program (NIH, Bethesda, […].). The wounds were cut in the middle, one section from each side of the wound was evaluated, and the average of these two values was used in the analysis. The length of hyperproliferative epidermis and size of the wound tissue were determined from the Masson trichrome stained tissue sections. […]

[2] = system: full thickness skin wounds; assay: Accumulation of intravenously injected decorins in wound tissue (anti-6-histidine tag staining); type: in vivo, mice; conditions: daily intravenous injections Days 3-5; evaluated Day 5
Method: Mice with full thickness skin wounds, received daily intravenous injections as indicated on Days 3-5 after the wounding (n=4 per group, 2 wounds per animal). On Day 5, the presence of decorins was evaluated with anti-6-histidine tag antibody (which stains brown) by examining two sections from each wound.
Six 8-week-old male BALB/c mice were anesthetized with intraperitoneally-injected 2.5% avertin Skin was shaved, cleaned, and disinfected with betadine and 70% alcohol. All animal experiments received approval from the IACUC of Burnham Institute for Medical Research. Treatment trials were conducted on mice that had circular, 8 mm-diameter, full thickness (including panniculus carnosus muscle) excision wounds in the dorsal skin. […]
as §1
Frozen sections were fixed in acetone for 10 min and pre-incubated with 0.5% blocking reagent for 1 hr (NEN Life Sciences, Boston, Mass.). […] The primary antibodies were detected with corresponding secondary antibodies, and each staining experiment included slides stained with species-matched immunoglobulins as negative controls. […]

[3] = system: CHO-K cells; assay: CHO-K cell proliferation with decorins; type: cell-based, Chinese hamster; conditions: 0.3 μg/ml/day of decorins
Method: The effect of decorin preparations on CHO-K cell proliferation was determined as described previously (Yamaguchi 1990; Yamaguchi 1988). The cells were grown in media containing fetal bovine serum that had been dialyzed in a dialysis cassette (Pierce, Rockford, Ill.). The cells were plated in duplicate at a density of 2×10^4 cells per well in 24-well plates and cultured in 600 μl of culture media. Half of the medium was replaced daily with fresh medium containing decorin. Cells were collected by trypsinization, washed and resuspended in 1 ml of PBS containing 2 μg/ml of propidium iodide (PI) and 20,000 CountBright counting beads (Invitrogen, Carlsbad, Calif.), and analyzed by counting 1,000 beads in FACS. Cell number was also determined by hemocytometer.

B1: decorin: recombinant his-tagged human decorin, small leucine-rich chondroitin sulfate proteoglycan (protein, UniProt P07585 31-359, looked up)
Decorin: DEASGIGPEVPDDRDFEPSLGPVCPFRCQCHLRVVQCSDLGLDKVPKDLPPDTTLLDLQNNKITEIKDGDFKNLKNLHALILVNNKISKVSPGAFTPLVKLERLYLSKNQLKELPEKMPKTLQELRAHENEITKVRKVTFNGLNQMIVIELGTNPLKSSGIENGAFQGMKKLSYIRIADTNITSIPQGLPPSLTELHLDGNKISRVDAASLKGLNNLAKLGLSFNSISAVDNGSLANTPHLRELHLDNNKLTRVPGGLAEHKYIQVVYLHNNNISVVGSSDFCPPGHNTKKASYSGVSLFSNPVQYWEIQPSTFRCVYVRSAIQLGNYK
modifications: His-tag
notes: recombinant his-tagged human decorin, small leucine-rich chondroitin sulfate proteoglycan
change in granulation tissue/scar area ([1]; Day 14 after wounding): no statistically significant changes
prevention of scar formation ([1]; equivalent doses): inactive
decorin staining in skeletal muscle underlying the skin wounds [2]: No decorin-staining
decorin staining in wounds [2]: weakly positive for decorin staining
inhibition of CHO-K cell proliferation [3]: inhibited the proliferation of the CHO-K cells at high concentrations
